From the supplement of paper PMC10201428
± gives the standard deviation of the averaged measurements.

System: VchCAST RNA-guided transposition machinery (E. coli BL21(DE3) host, lacZ target)
Assay: relative integration efficiency (T-LR orientation) vs wild-type transposon end (log2 (normalized fold change)); transposon end mutated: right end (5 bp flank + 75 bp right end); higher = more efficient transposition
Outline: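 Barcode abundances in input plasmids and in genomic integration junctions were obtained by PCR amplification and Illumina sequencing. These came from E. coli BL21(DE3) co-transformed with a T7-driven effector plasmid and a pUC57 donor carrying 1549 left-end or 1849 right-end transposon variants, then plated with 0.1 mM IPTG at 37°C for 18 h. Relative integration efficiency is the output/input fold change, normalised to reference barcodes and log-transformed.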

Sequence	relative integration efficiency (log2)
ACATTTGTTGATACAACCATAAAATGATAATTAATAATCACCCATAAATTGATAATTATCAACAAACGCCCGGTCGCGGTACTCTGATCATAGTCAGACCAACATTGCTACGACCCGTATTCGCACC	0.619 ± 0.018
ACATTTGTTGATACAACCATAAGTTGATATTTTCAACCATAAAATGATAATTATCACAACCATATATTGATATCTCCTCTGATCATAGTCAGACCAACATTGCTACGACCCGTATTCGCACCGACAC	0.0384 ± 0.016
ACATTTGTTGATACAACCATAAAATGATAATTACACCCATAAATTGATAATTACCACTCCCAATTTAACTATAACGCTCTGATCATAGTCAGACCAACATTGCTACGACCCGTATTCGCACCGACAC	2.61 ± 0.18
ACATTTGTTGATACAACCATAAAATGATCATTACACCCATCAATTGATAATTATCCCACCCAATTTAACTATAACGCTCTGATCATAGTCAGACCAACATTGCTACGACCCGTATTCGCACCGACAC	0.874 ± 0.13
ACATTTGTTGATACAACCATAAAATGATAATTACAGGCATAAATTGATAATTATCACACCCATAAATTGATATTGCCTCTGATCATAGTCAGACCAACATTGCTACGACCCGTATTCGCACCGACAC	-0.52 ± 0.19
ACATTTGTTGAATCAACCATAAAATGATAATTACACCCATAAATTGATAATTATCACACCCATAAATTGATATTGCCTCTGATCATAGTCAGACCAACATTGCTACGACCCGTATTCGCACCGACAC	0.00973 ± 0.13
ACATTTGTTGATACAACCATAAGTTGATATTTTCACCCATAAATTGATATTGCTCACAACCATAAAATGATAATTACTCTGATCATAGTCAGACCAACATTGCTACGACCCGTATTCGCACCGACAC	-0.0881 ± 0.35
ACATTTGTTGATACAACCATATTTTGATAATTACACCCATATTATGATAATTATCACACCCATATTATGATATTGCCTCTGATCATAGTCAGACCAACATTGCTACGACCCGTATTCGCACCGACAC	-0.241 ± 0.0091
ACATTTGTTGATACAACCATAAGTTGATATTTTCAACCATAAAGTGATATTTATCACAACCATAAAATGATAATTACTCTGATCATAGTCAGACCAACATTGCTACGACCCGTATTCGCACCGACAC	-0.435 ± 0.24
ACATTTGTTGATACAACCATTAAATGATAATTACACCCATATATTGATAATTATCACACCCAATTTAACTATAACGCTCTGATCATAGTCAGACCAACATTGCTACGACCCGTATTCGCACCGACAC	2.04 ± 0.065
ACATTTGTTGATACAACCATAAAATGATAATGCACCCCATAAATTGATAATTATCACACCCATAAATTGATATTGCCTCTGATCATAGTCAGACCAACATTGCTACGACCCGTATTCGCACCGACAC	-0.689 ± 0.18
ACATTTGTTGATACAACCATAAAATGATAATTTCACCCATAAATTGATAATTTTCACACCCATAAATTGATATTGGCTCTGATCATAGTCAGACCAACATTGCTACGACCCGTATTCGCACCGACAC	-0.0323 ± 0.56
ACATTTGTTGATACAACCATAAGTTGATATTTTCACCCATAAATTGATATTGCTCACAACCATAAAGTGATATTTACTCTGATCATAGTCAGACCAACATTGCTACGACCCGTATTCGCACCGACAC	-0.333 ± 0.49
ACATTTGTTGATACAACCATAAAATGATAATTACACCCATAAATTGATAATTATCACACCCATAAATTGATATTGCCTCTGATCATAGTCTGTGATTGTTATCACATTTCAGACCAAGCACCGACAC	0.209 ± 0.1
ACATTTGTTGATACAACCATAAAATGATAATTACACCCATAAATTGATAATTATCACACCCATAAATTGATATTGCCTCTGATCATAGTCAGACCCAACCATAAAATGATAATTAAAGCACCGACAC	0.192 ± 0.26
ACATTTGTTGATACAACCATAAAATGATAATTAATAATTATTTATCACCCATAAATTGATAATTATCAACAAACGCCCGGTCGCGGTACTCTGATCATAGTCAGACCAACATTGCTACGACCCGTAT	2.6 ± 0.053

Sequence	relative integration efficiency (log2)
ACATTTGTTGATACACCCATAAATTGATATTGCCAACCATAAAATGATAATTATCACAACCATAAGTTGATATTTTCTCTGATCATAGTCAGACCAACATTGCTACGACCCGTATTCGCACCGACAC	-0.175 ± 0.71
ACATTTGTTGATACAACCATACCCTGATAATTACACCCATACCGTGATAATTATCACACCCATACCGTGATATTGCCTCTGATCATAGTCAGACCAACATTGCTACGACCCGTATTCGCACCGACAC	-2.37 ± 1
ACATTTGTTGATACAACCATATATTGATATCTCCACCCATAAATTGATATTGCTCACACCCATAAATTGATAATTACTCTGATCATAGTCAGACCAACATTGCTACGACCCGTATTCGCACCGACAC	0.429 ± 0.13
ACATTTGTTGATACAACCATAAAATCATCATTACACCCATAAATTGATAATTATCCCACCCCATTTAACTATAACGCTCTGATCATAGTCAGACCAACATTGCTACGACCCGTATTCGCACCGACAC	0.992 ± 0.31
ACATTTGTTGATACAACCATAAAATCATCATTACACCCATCAATTGATAATTATCACACCCAATTTAACTATAACGCTCTGATCATAGTCAGACCAACATTGCTACGACCCGTATTCGCACCGACAC	-0.508 ± 0.42
ACATTTGTTGATACAACCATAATTTGATAATTACACCCATAATATGATAATTATCACACCCATAATATGATATTGCCTCTGATCATAGTCAGACCAACATTGCTACGACCCGTATTCGCACCGACAC	-0.228 ± 0.16
ACATTTGTTGATACAACCATAAAATGATAATTACACCCATAAATTGATCATTATCACCCCCAATTTAACTATAACGCTCTGATCATAGTCAGACCAACATTGCTACGACCCGTATTCGCACCGACAC	1.9 ± 0.065
ACATTTGTTGATACAACCATAAAATGATAATTACACCCATAAATTGATAATTATCACACCCATAAATTGATATTGCCTCTGATAACTTCGTATAATGTATGCTATACGAAGTTATTCGCACCGACAC	0.719 ± 0.031
ACAAATGTTGATACAACCATAAAATGATAATTACACCCATAAATTGATAATTATCACACCCATAAATTGATATTGCCTCTGATCATAGTCAGACCAACATTGCTACGACCCGTATTCGCACCGACAC	0.224 ± 0.075
ACATTTGTTGATACACCCATAAATTGATATTGCCAACCATAAAGTGATATTTATCACAACCATATATTGATATCTCCTCTGATCATAGTCAGACCAACATTGCTACGACCCGTATTCGCACCGACAC	0.117 ± 0.34
ACATTTGTTGATACAACCATAAAAGTCGAATTACACCCATAAATTGATAATTATCACACCCATAAATTGATATTGCCTCTGATCATAGTCAGACCAACATTGCTACGACCCGTATTCGCACCGACAC	-3.24 ± 0.7
ACATTTGTTGATACAACCATAAAATGATAATTACACCCATAAATTGATAAAATACACACCCATAAATTGATATTGCCTCTGATCATAGTCAGACCAACATTGCTACGACCCGTATTCGCACCGACAC	-0.0186 ± 0.38
ACATTTGTTGATACAACCATAAAATGATAATTACACCCATTTATTGATAATTATCACACCCATAAATTGATATTGCCTCTGATCATAGTCAGACCAACATTGCTACGACCCGTATTCGCACCGACAC	-0.628 ± 0.89
ACATTTGTTGATACAACCATAAAATGATAATTACACCCATAAATTGATAATTATCACACCCATAAATTGATATTGCCGATGATCATAGTCAGACCAACATTGCTACGACCCGTATTCGCACCGACAC	0.0792 ± 0.085
ACATTTGTTGATACACCCATAAATTGATAATTACACCCATAAATTGATATTGCTCACAACCATAAGTTGATATTTTCTCTGATCATAGTCAGACCAACATTGCTACGACCCGTATTCGCACCGACAC	0.079 ± 0.1
ACATTTGTTGATACAACCATAAAATGATAATTACACCCATAAATTGATATTGCTCACAACCATAAGTTGATATTTTCTCTGATCATAGTCAGACCAACATTGCTACGACCCGTATTCGCACCGACAC	0.538 ± 0.11
